B1: hu_KIF3A (1-350H) motor domain (SEQ ID NO:16) (protein)
chain: MPINKSEKPESCDNVKVVVRCRPLNEREKSMCYKQAVSVDEMRGTITVHKTDSSNEPPKTFTFDTVFGPESKQLDVYNLTARPIIDSVLEGYNGTIFAYGQTGTGKTFTMEGVRAIPELRGIIPNSFAHIFGHIAKAEGDTRFLVRVSYLEIYNEEVRDLLGKDQTQRLEVKERPDVGVYIKDLSAYVVNNADDMDRIMTLGHKNRSVGATNMNEHSSRSHAIFTITIECSEKGIDGNMHVRMGKLHLVDLAGSERQAKTGATGQRLKEATKINLSLSTLGNVISALVDGKSTHVPYRNSKLTRLLQDSLGGNSKTMMCANIGPADYNYDETISTLRYANRAKNIKNKARVDKLAAALEHHHHHH
B2: hu_uKHC (1-337H) motor domain (SEQ ID NO:17) (protein)
chain: MADLAECNIKVMCRFRPLNESEVNRGDKYIAKFQGEDTVVIASKPYAFDRVFQSSTSQEQVYNDCAKKIVKDVLEGYNGTIFAYGQTSSGKTHTMEGKLHDPEGMGIIPRIVQDIFNYIYSMDENLEFHIKVSYFEIYLDKIRDLLDVSKTNLSVHEDKNRVPYVKGCTERFVCSPDEVMDTIDEGKSNRHVAVTNMNEHSSRSHSIFLINVKQENTQTEQKLSGKLYLVDLAGSEKVSKTGAEGAVLDEAKNINKSLSALGNVISALAEGSTYVPYRDSKMTRILQDSLGGNCRTTIVICCSPSSYNESETKSTLLFGQRAKTIKNTVCVNVELTAVDKLAAALEHHHHHH
B3: hu_CENP-E (1-340H) motor domain (SEQ ID NO:19) (protein)
chain: MAEEGAVAVCVRVRPLNSREESLGETAQVYWKTDNNVIYQVDGSKSFNFDRVFHGNETTKNVYEEIAAPIIDSAIQGYNGTIFAYGQTASGKTYTMMGSEDHLGVIPRAIHDIFQKIKKFPDREFLLRVSYMEIYNETITDLLCGTQKMKPLIIREDVNRNVYVADLTEEVVYTSEMALKWITKGEKSRHYGETKMNQRSSRSHTIFRMILESREKGEPSNCEGSVKVSHLNLVDLAGSERAAQTGAAGVRLKEGCNINRSLFILGQVIKKLSDGQVGGFINYRDSKLTRILQNSLGGNAKTRIICTITPVSFDETLTALQFASTAKYMKNTPYVNEVSTVDKLAAALEHHHHHH
B4: hu-KSP (1-367H) motor domain (SEQ ID NO:15) (protein)
chain: MASQPNSSAKKKEEKGKNIQVVVRCRPFNLAERKASAHSIVECDPVRKEVSVRTGGLADKSSRKTYTFDMVFGASTKQIDVYRSVVCPILDEVIMGYNCTIFAYGQTGTGKTFTMEGERSPNEEYTWEEDPLAGIIPRTLHQIFEKLTDNGTEFSVKVSLLEIYNEELFDLLNPSSDVSERLQMFDDPRNKRGVIIKGLEEITVHNKDEVYQILEKGAAKRTTAATLMNAYSSRSHSVFSVTIHMKETTIDGEELVKIGKLNLVDLAGSENIGRSGAVDKRAREAGNINQSLLTLGRVITALVERTPHVPYRESKLTRILQDSLGGRTRTSIIATISPASLNLEETLSTLEYAHRAKNILNKPEVNQHHHHHH
B5: hu_MKLP-1 (1-433H) motor domain (SEQ ID NO:20) (protein)
chain: MARAKTPRKPTVKKGSQTNLKDPVGVYCRVRPLGFPDQECCIEVINNTTVQLHTPEGYRLNRNGDYKETQYSFKQVFGTHTTQKELFDVVANPLVNDLIHGKNGLLFTYGVTGSGKTHTMTGSPGEGGLLPRCLDMIFNSIGSFQAKRYVFKSNDRNSMDIQCEVDALLERQKREAMPNPKTSSSKRQVDPEFADMITVQEFCKAEEVDEDSVYGVFVSYIEIYNNYIYDLLEEVPFDPIKPKPPQSKLLREDKNHNMYVAGCTEVEVKSTEEAFEVFWRGQKKRRIANTHLNRESSRSHSVFNIKLVQAPLDADGDNVLQEKEQITISQLSLVDLAGSERTNRTRAEGNRLREAGNINQSLMTLRTCMDVLRENQMYGTNKMVPYRDSKLTHLFKNYFDGEGKVRMIVCVNPKAEDYEENLQVMRFAEVTQEVDKLAAALEHHHHHH
B6: hu_nKHC (1-340H) motor domain (SEQ ID NO:18) (protein)
chain: MAETNNECSIKVLCRFRPLNQAEILRGDKFIPIFQGDDSVVIGGKPYVFDRVFPPNTTQEQVYHACAMQIVKDVLAGYNGTIFAYGQTSSGKTHTMEGKLHDPQLMGIIPRIARDIFNHIYSMDENLEFHIKVSYFEIYLDKIRDLLDVTKTNLSVHEDKNRVPFVKGCTERFVSSPEEILDVIDEGKSNRHVAVTNMNEHSSRSHSIFLINIKQENMETEQKLSGKLYLVDLAGSEKVSKTGAEGAVLDEAKNINKSLSALGNVISALAEGTKSYVPYRDSKMTRILQDSLGGNCRTTMFICCSPSSYNDAETKSTLMFGQRAKTIKNTASVNLELTAEVDKLAAALEHHHHHH
B7: KIF14 motor domain V342-D710 (SEQ ID NO:5) (protein)
chain: MVQNTSAGKDPLKVENSQVTVAVRVRPFTKREKIEKASQVVFMSGKEITVEHPDTKQVYNFIYDVSFWSFDECHPHYASQTTVYEKLAAPLLERAFEGFNTCLFAYGQTGSGKSYTMMGFSEEPGIIPRFCEDLFSQVARKQTQEVSYHIEMSFFEVYNEKIHDLLVCKDENGQRKQPLRVREHPVYGPYVEALSMNIVSSYADIQSWLELGNKQRATAATGMNDKSSRSHSVFTLVMTQTKTEFVEGEEHDHRITSRINLIDLAGSERCSTAHTNGDRLKEGVSINKSLLTLGKVISALSEQANQRSVFIPYRESVLTWLLKESLGGNSKTAMIATISPAASNIEETLSTLRYANQARLIVNIAKVNEDLEHHHHHHHHHHHH
B8: KIF14 motor domain V354-D710 (SEQ ID NO:7) (protein)
chain: MVENSQVTVAVRVRPFTKREKIEKASQVVFMSGKEITVEHPDTKQVYNFIYDVSFWSFDECHPHYASQTTVYEKLAAPLLERAFEGFNTCLFAYGQTGSGKSYTMMGFSEEPGIIPRFCEDLFSQVARKQTQEVSYHIEMSFFEVYNEKIHDLLVCKDENGQRKQPLRVREHPVYGPYVEALSMNIVSSYADIQSWLELGNKQRATAATGMNDKSSRSHSVFTLVMTQTKTEFVEGEEHDHRITSRINLIDLAGSERCSTAHTNGDRLKEGVSINKSLLTLGKVISALSEQANQRSVFIPYRESVLTWLLKESLGGNSKTAMIATISPAASNIEETLSTLRYANQARLIVNIAKVNEDLEHHHHHHHHHHHH
B9: KIF14 motor domain V354-K720 (SEQ ID NO:6) (protein)
chain: MVENSQVTVAVRVRPFTKREKIEKASQVVFMSGKEITVEHPDTKQVYNFIYDVSFWSFDECHPHYASQTTVYEKLAAPLLERAFEGFNTCLFAYGQTGSGKSYTMMGFSEEPGIIPRFCEDLFSQVARKQTQEVSYHIEMSFFEVYNEKIHDLLVCKDENGQRKQPLRVREHPVYGPYVEALSMNIVSSYADIQSWLELGNKQRATAATGMNDKSSRSHSVFTLVMTQTKTEFVEGEEHDHRITSRINLIDLAGSERCSTAHTNGDRLKEGVSINKSLLTLGKVISALSEQANQRSVFIPYRESVLTWLLKESLGGNSKTAMIATISPAASNIEETLSTLRYANQARLIVNIAKVNEDMNAKLIRELKLEHHHHHHHHHHHH
B10: hu_KIF1B (1-350H) motor domain (SEQ ID NO:21) (protein)
chain: MSGASVKVAVRVRPFNSRETSKESKCIIQMQGNSTSIINPKNPKEAPKSFSFDYSYWSHTSPEDPCFASQNRVYNDIGKEMLLHAFEGYNVCIFAYGQTGAGKSYTMMGKQEESQAGIIPQLCEELFEKINDNCNEEMSYSVEVSYMEIYCERVRDLLNPKNKGNLRVREHPLLGPYVEDLSKLAVTSYTDIADLMDAGNKARTVAATNMNETSSRSHAVFTIVFTQKKHDNETNLSTEKVSKISLVDLAGSERADSTGAKGTRLKEGANINKSLTTLGKVISALAEVDNCTSKSKKKKKTDFIPYRDSVLTWLLRENLGGNSRTAMVAALSPADINYDETLSTLRYADRVDKLAAALEHHHHHH
B11: KIF14 motor domain V342-K720 (SEQ ID NO:4) (protein)
chain: MVQNTSAGKDPLKVENSQVTVAVRVRPFTKREKIEKASQVVFMSGKEITVEHPDTKQVYNFIYDVSFWSFDECHPHYASQTTVYEKLAAPLLERAFEGFNTCLFAYGQTGSGKSYTMMGFSEEPGIIPRFCEDLFSQVARKQTQEVSYHIEMSFFEVYNEKIHDLLVCKDENGQRKQPLRVREHPVYGPYVEALSMNIVSSYADIQSWLELGNKQRATAATGMNDKSSRSHSVFTLVMTQTKTEFVEGEEHDHRITSRINLIDLAGSERCSTAHTNGDRLKEGVSINKSLLTLGKVISALSEQANQRSVFIPYRESVLTWLLKESLGGNSKTAMIATISPAASNIEETLSTLRYANQARLIVNIAKVNEDMNAKLIRELKLEHHHHHHHHHHHH

Molecular target: taxol-stabilized microtubules

| Protein | K1/2 (MT) | k(obs) (min-1) at MT 0 micromolar | k(obs) (min-1) at MT 0.25 micromolar | k(obs) (min-1) at MT 0.5 micromolar | k(obs) (min-1) at MT 1 micromolar | k(obs) (min-1) at MT 2.5 micromolar | k(obs) (min-1) at MT 5 micromolar | microtubule-dependent ATP hydrolysis activity | further results |
| --- | --- | --- | --- | --- | --- | --- | --- | --- | --- |
| B1 | 0.17 µM |  |  |  |  |  |  |  |  |
| B2 | 0.34 µM |  |  |  |  |  |  |  |  |
| B3 | 1.6 µM |  |  |  |  |  |  |  |  |
| B4 | 0.3 µM |  |  |  |  |  |  |  |  |
| B5 | 0.24 µM |  |  |  |  |  |  |  |  |
| B6 | 1.1 µM |  |  |  |  |  |  |  |  |
| B7 |  | 0 min⁻¹ | 0.03 min⁻¹ | 0.73 min⁻¹ | 0.79 min⁻¹ | 3.02 min⁻¹ | 5.91 min⁻¹ | All of the KIF14 MD proteins showed microtubule-dependent ATP hydrolysis activity |  |
| B8 |  | 0 min⁻¹ | 0.39 min⁻¹ | 1.07 min⁻¹ | 1.87 min⁻¹ | 5.79 min⁻¹ | 10.2 min⁻¹ | All of the KIF14 MD proteins showed microtubule-dependent ATP hydrolysis activity |  |
| B9 |  | 0 min⁻¹ | 0.73 min⁻¹ | 1.49 min⁻¹ | 4.12 min⁻¹ | 9.29 min⁻¹ | 18.3 min⁻¹ | All of the KIF14 MD proteins showed microtubule-dependent ATP hydrolysis activity |  |
| B10 | 0.035 µM |  |  |  |  |  |  |  |  |
| B11 | 10.6 µM | 0 min⁻¹ | 0.36 min⁻¹ | 1.57 min⁻¹ | 2.79 min⁻¹ | 9.1 min⁻¹ | 13.2 min⁻¹ | All of the KIF14 MD proteins showed microtubule-dependent ATP hydrolysis activity | Km (Michaelis-Menten fit of microtubule utilization): a Km of 2.6+/-1.1 (s.d.); kcat (Michaelis-Menten fit of microtubule utilization): a kcat of 21.3+/-3.5 (s.d.); kcat/Km under optimized conditions (MES, pH 6.0, 40 mM KCl): compared to 13.2 under optimized conditions (MES, pH 6.0,40 mM KCl); kcat/Km under unoptimized conditions (K-PIPES, pH 6.7, 90 mM KCl): the kcat/Km for the V342-K720 motor domain (SEQ ID NO:4) under unoptimized conditions (K-PIPES, pH 6.7, 90 mM KCl) was 224 |

Reference: US20070134660
